Target: T1, endogenous beta-catenin of human HEK293 cells (human, UniProt P35222 2-781)
T1 construct: also called β-catenin
T1 sequence (looked up): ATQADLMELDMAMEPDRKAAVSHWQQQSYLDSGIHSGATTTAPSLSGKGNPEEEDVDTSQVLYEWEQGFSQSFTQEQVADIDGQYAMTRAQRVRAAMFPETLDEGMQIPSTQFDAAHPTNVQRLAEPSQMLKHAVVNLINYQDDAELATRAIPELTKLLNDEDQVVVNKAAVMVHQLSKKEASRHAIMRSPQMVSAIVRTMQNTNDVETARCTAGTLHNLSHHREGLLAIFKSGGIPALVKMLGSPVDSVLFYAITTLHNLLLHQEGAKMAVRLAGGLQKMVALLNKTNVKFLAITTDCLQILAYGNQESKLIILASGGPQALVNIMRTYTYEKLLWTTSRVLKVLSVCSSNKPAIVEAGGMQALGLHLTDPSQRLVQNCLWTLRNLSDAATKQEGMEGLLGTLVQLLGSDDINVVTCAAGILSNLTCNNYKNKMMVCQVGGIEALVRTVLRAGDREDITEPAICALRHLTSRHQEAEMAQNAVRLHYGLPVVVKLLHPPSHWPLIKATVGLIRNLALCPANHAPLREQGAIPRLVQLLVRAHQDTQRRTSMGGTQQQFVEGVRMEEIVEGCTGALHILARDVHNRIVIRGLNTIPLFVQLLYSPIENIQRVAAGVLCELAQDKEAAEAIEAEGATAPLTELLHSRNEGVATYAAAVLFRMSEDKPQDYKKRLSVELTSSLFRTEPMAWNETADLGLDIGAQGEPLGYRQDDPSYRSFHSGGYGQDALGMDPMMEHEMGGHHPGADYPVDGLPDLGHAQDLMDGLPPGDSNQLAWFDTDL
Experiment: Talon cobalt-affinity isolation of His-tagged hPSF from 1% CHAPSO lysates of stable HEK293 cells, Western blot

B1: human presenilin stabilization factor (PSF) with C-terminal V5 and poly-histidine (6xHis) tags (other, not shown: small tags and cut ends)
chain: MGAAVFFGCTFVAFGPAFALFLITVAGDPLRVIILVAGAFFWLVSLLLASVVWFILVHVTDRSDARLQYGLLIFGAAVSVLLQEVFRFAYYKLLKKADEGLASLSEDGRSPISIRQMAYVSGLSFGIISGVFSVINILADALGPGVVGIHGDSPYYFLTSAFLTAAIILLHTFWGVVFFDACERRRYWALGLVVGSHLLTSGLTFLNPWYEASLLPIYAVTVSMGLWAFITAGGSLRSIQRSSCVRTDYLD
notes: Stably expressed in HEK293 (APP-695) cells (clonal line 2-7), solubilised in 1% CHAPSO and captured on Talon cobalt resin; Both the full-length (~25 kDa) and the processed (~15 kDa) forms were isolated; also called hPSF; PSF-V5
Question: Does B1 bind?
Answer: no binding

From patent US20050095604A1 (published 2005)
